The text below walks through data of patent US6858578.

For this assay, the target named is LDLR/TF chimeric protein with amino acids 1-374 of mature human LDLR fused to amino acids 20-698 of human transferrin (encoded by pEFBOS/LDLrTF1.S) (human). Nature of the assay: microplate assay: chimeric protein (13.3 nM) held by coated HTF-14, LDL 0.5-50 µg/ml, detected with sheep anti-human LDL; the signal at 50 µg/ml is taken as the maximum.

Values joined by “and” are separate entries in the source; they are usually repeats but may differ in a detail not shown here. Equal values may be shown once.

Chain of LDLR/TF chimeric protein with amino acids 1-374 of mature human LDLR fused to amino acids 20-698 of human transferrin (encoded by pEFBOS/LDLrTF1.S) (human) (chain, as listed by the source mutant): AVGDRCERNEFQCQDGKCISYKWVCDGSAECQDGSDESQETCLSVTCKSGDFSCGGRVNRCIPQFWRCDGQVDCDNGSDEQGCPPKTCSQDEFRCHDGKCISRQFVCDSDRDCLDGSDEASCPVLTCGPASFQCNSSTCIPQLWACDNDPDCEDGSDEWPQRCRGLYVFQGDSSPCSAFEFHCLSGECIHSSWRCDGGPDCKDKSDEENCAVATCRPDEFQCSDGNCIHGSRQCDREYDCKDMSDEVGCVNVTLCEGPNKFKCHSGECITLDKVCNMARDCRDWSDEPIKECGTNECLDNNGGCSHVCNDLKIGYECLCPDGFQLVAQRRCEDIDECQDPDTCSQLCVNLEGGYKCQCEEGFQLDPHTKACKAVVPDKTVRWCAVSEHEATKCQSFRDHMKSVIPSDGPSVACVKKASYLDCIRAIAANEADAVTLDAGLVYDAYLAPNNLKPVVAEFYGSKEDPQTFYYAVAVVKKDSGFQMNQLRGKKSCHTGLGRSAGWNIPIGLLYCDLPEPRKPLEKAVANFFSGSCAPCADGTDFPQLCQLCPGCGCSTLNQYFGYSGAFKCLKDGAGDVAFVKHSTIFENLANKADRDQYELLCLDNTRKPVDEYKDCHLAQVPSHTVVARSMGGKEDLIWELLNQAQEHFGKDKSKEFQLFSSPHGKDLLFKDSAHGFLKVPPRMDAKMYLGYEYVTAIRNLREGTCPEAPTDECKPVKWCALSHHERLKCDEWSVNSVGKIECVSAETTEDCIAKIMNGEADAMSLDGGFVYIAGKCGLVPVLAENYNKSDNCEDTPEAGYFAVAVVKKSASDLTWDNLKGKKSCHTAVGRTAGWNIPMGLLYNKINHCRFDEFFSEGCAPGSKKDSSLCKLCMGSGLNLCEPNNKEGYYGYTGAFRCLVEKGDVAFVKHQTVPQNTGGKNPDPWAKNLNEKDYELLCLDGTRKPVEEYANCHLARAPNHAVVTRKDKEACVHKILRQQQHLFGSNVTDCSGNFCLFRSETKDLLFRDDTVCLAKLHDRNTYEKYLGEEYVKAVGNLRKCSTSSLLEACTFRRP

A word on the EC50: it is the concentration at which the effect is half-maximal. Low values mean a more potent agent, high ones a less potent agent. As for “human LDL (low density lipoprotein particle carrying one molecule of apolipoprotein B-100), P04114 28-4563”, the concentration giving a half-maximal response (EC50) is 1.6 µg/mL and 3.1 nM.
